According to PMC2994906 (PLoS ONE, 2010):
No end group written: not given here.

Tests used:
Settings in all cases: both partners purified
[1] = target: T1, human RARα LBD (residues 153-421) (human, UniProt P10276 153-421); experiment: ITC; SRC-1 NR2 peptide (1.3 mM) injected into 20-50 µM RAR without ligand (apo); 30°C; 20 mM Tris pH 8.0, 200 mM NaCl, 2% ethanol
T1 construct: Cloned in pET15b; The purification of RARα alone is not described; also called hRARα LBD; RARα monomer; source: E. coli BL21 (DE3), purified
T1 sequence (looked up): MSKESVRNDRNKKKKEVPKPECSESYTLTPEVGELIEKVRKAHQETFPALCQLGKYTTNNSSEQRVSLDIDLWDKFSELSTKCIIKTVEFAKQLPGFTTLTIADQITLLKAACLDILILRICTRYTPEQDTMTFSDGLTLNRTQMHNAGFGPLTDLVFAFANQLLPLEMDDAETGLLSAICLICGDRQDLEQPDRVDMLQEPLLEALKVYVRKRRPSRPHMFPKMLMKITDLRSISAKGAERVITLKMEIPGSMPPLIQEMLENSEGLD

[2] = target: T1, human RARα LBD (residues 153-421); experiment: ITC; SRC-1 NR2 peptide (1.3 mM) injected into 20-50 µM RAR or RAR/RXR with LG100754 in fivefold molar excess; 30°C; 20 mM Tris pH 8.0, 200 mM NaCl, 2% ethanol
[3] = target: T2, hRARα/mRXRα LBD heterodimer (human | mouse, UniProt P10276 153-421; P28700 228-467); experiment: as above
T2 construct: RARα in pET15b (His-tagged), RXRα in pET3a (no tag named); The heterodimer was formed beforehand by copurification; also called RAR/RXR; RARα/RXRα LBD; copies: 1 + 1
T2 sequence (looked up) 1: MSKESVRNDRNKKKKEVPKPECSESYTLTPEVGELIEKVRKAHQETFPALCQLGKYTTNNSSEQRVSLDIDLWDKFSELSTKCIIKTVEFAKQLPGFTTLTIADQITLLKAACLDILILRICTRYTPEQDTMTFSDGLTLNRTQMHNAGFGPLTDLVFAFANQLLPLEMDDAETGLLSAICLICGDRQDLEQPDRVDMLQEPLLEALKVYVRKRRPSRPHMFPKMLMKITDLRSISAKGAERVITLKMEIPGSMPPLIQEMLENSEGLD
T2 sequence (looked up) 2: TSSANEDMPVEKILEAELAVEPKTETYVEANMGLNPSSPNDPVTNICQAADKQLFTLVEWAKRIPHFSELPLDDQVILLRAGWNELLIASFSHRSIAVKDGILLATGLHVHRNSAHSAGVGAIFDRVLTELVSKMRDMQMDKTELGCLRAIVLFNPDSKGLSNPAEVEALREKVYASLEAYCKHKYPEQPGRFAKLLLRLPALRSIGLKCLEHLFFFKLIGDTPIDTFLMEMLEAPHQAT

[4] = target: T1, human RARα LBD (residues 153-421); experiment: ITC; SRC-1 NR2 peptide (1.3 mM) injected into 20-50 µM RAR with an RAR agonist in fivefold molar excess (agonist not named); 30°C; 20 mM Tris pH 8.0, 200 mM NaCl, 2% ethanol
[5] = target: T3, hRARα/mRXRα LBD heterodimer (human | mouse, UniProt P10276 153-421; P28700 228-467); experiment: fluorescence polarisation; fluorescence anisotropy; hRARα/mRXRα LBDs added to 1 µM TAMRA-SRC-1 NR2 peptide; 20°C; 10 mM TRIS-HCl pH 7.5, 150 mM NaCl, 10 mM DTT; apparent; RAR ligand AM580, RXR apo
T3 construct: Heterodimer formed beforehand; small-molecule ligands (atRA, LG100754, AM580, BMS614, BMS649, 9-cisRA, HX531) differ between experiments and are named in the assays; also called RARα/RXRα LBD; RAR/RXR; not shown: His6, N-terminal, kept; copies: 1 + 1
T3 sequence (looked up) 1: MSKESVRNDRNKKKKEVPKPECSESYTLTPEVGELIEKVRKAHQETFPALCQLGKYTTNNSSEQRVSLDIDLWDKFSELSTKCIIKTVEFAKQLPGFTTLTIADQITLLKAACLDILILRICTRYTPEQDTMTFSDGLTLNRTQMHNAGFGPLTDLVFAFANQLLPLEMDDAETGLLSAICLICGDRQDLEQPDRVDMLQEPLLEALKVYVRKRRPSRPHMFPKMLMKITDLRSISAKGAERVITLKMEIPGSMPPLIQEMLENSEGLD
T3 sequence (looked up) 2: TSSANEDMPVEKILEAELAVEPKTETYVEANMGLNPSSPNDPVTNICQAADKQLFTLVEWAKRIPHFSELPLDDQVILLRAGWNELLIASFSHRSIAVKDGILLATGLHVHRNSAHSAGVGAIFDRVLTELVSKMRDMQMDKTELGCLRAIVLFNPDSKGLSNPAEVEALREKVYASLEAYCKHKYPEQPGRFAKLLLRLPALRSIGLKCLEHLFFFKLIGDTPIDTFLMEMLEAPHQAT

[6] = target: T3, hRARα/mRXRα LBD heterodimer; experiment: fluorescence polarisation; fluorescence anisotropy; hRARα/mRXRα LBDs added to 1 µM TAMRA-SRC-1 NR2 peptide; 20°C; 10 mM TRIS-HCl pH 7.5, 150 mM NaCl, 10 mM DTT; apparent; RAR apo, RXR ligand BMS649
[7] = target: T3, hRARα/mRXRα LBD heterodimer; experiment: fluorescence polarisation; fluorescence anisotropy; hRARα/mRXRα LBDs added to 1 µM TAMRA-SRC-1 NR2 peptide; 20°C; 10 mM TRIS-HCl pH 7.5, 150 mM NaCl, 10 mM DTT; apparent; RAR ligand BMS614, RXR ligand BMS649
[8] = target: T3, hRARα/mRXRα LBD heterodimer; experiment: fluorescence polarisation; fluorescence anisotropy; hRARα/mRXRα LBDs added to a fixed concentration of TAMRA-SRC-1 NR2 peptide; 20°C; 10 mM TRIS-HCl pH 7.5, 150 mM NaCl, 10 mM DTT; apparent; RAR apo, RXR apo
[9] = target: T3, hRARα/mRXRα LBD heterodimer; experiment: fluorescence polarisation; fluorescence anisotropy; hRARα/mRXRα LBDs added to 1 µM TAMRA-SRC-1 NR2 peptide; 20°C; 10 mM TRIS-HCl pH 7.5, 150 mM NaCl, 10 mM DTT; apparent; RAR ligand AM580, RXR ligand LG100754
[10] = target: T3, hRARα/mRXRα LBD heterodimer; experiment: fluorescence polarisation; fluorescence anisotropy; hRARα/mRXRα LBDs added to a fixed concentration of TAMRA-SRC-1 NR2 peptide; 20°C; 10 mM TRIS-HCl pH 7.5, 150 mM NaCl, 10 mM DTT; apparent; RAR apo, RXR ligand LG100754
[11] = target: T3, hRARα/mRXRα LBD heterodimer; experiment: fluorescence polarisation; fluorescence anisotropy; hRARα/mRXRα LBDs added to a fixed concentration of TAMRA-SRC-1 NR2 peptide; 20°C; 10 mM TRIS-HCl pH 7.5, 150 mM NaCl, 10 mM DTT; apparent; RAR ligand BMS614, RXR ligand LG100754
[12] = target: T3, hRARα/mRXRα LBD heterodimer; experiment: fluorescence polarisation; fluorescence anisotropy; hRARα/mRXRα LBDs added to 1 µM TAMRA-SRC-1 NR2 peptide; 20°C; 10 mM TRIS-HCl pH 7.5, 150 mM NaCl, 10 mM DTT; apparent; 9-cisRA on RAR and RXR; two sites, fit gave k2 identical to k1
[13] = target: T3, hRARα/mRXRα LBD heterodimer; experiment: fluorescence polarisation; fluorescence anisotropy; hRARα/mRXRα LBDs added to 1 µM TAMRA-SRC-1 NR2 peptide; 20°C; 10 mM TRIS-HCl pH 7.5, 150 mM NaCl, 10 mM DTT; apparent; RAR ligand AM580, RXR ligand BMS649; two sites, fit gave k2 identical to k1

B1: SRC-1 NR2 peptide (676-[residues removed]-700) (peptide)
peptide: CPSSHSSLTERHKILHRLLQEGSPS
notes: The unlabelled 25-residue peptide used in ITC and ESI-MS; It is not the 13-residue TAMRA-labelled peptide of the anisotropy titrations
B1 was tested, and the Kd [1] was 9000 ± 400 nM, the Kd [2] was 1600 ± 200 nM and the Kd [3] was 4500 ± 600 nM. It also gave a Kd [4] of 1400 ± 100 nM.

B2: TAMRA-labeled SRC-1 NR2 peptide (686-RHKILHRLLQEGS-698) (peptide)
peptide: RHKILHRLLQEGS
modifications: also: TAMRA label, position not given here
notes: also called (TAMRA) – SRC-1 NR2 peptide; source: bought: Neosystem (Strasbourg, France)
With B2 the Kd [5] was 190 ± 20 nM, the Kd [6] was 420 ± 30 nM and the Kd [7] was 450 ± 40 nM. The Kd [8] was 2000 ± 100 nM, the Kd [9] was 170 ± 10 nM and the Kd [10] was 2500 ± 100 nM. For the same binder, the Kd [11] was > 10000 nM, the Kd [12] was 610 ± 20 nM and the Kd [13] was 290 ± 20 nM.
